Measurements taken from PMC8324832.

Target: Right-Handed Coiled Coil-Nanotube (RHCC-NT) (Staphylothermus marinus)
Experiment: crystal structure; RHCC-NT incubated with o-carborane at 50 °C for 1 week, 10 mg/mL in 10 mM TRIS pH 7.5, 154 mM NaCl; vapour diffusion; data at 100 K; 2.2 Å; molecular replacement with PDB 1YBK

- stoichiometry N: 4
Substance: Right-Handed Coiled Coil-Nanotube (RHCC-NT) (domain or fragment)
